Measured values from US20220275027A1 (TRUSTEES OF PRINCETON UNIVERSITY, published 2022).
Where no end group is shown, it is not given here.

T1: Fl-Cat^N (fluorescein labeled Cat^N peptide) (N-terminus capped with 5(6)-carboxyfluorescein)
T1 construct: Made by Fmoc solid phase synthesis; also called FI-Cat^N; Cat^N containing an N-terminal fluorescein
T1 peptide: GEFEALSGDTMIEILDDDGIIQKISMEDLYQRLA

B1: FLAG-Cat^C (cleaved from SUMO-Flag-Cat^C) (other)
chain: DYKDDDDKMFKLNTKNIKVLTPSGFKSFSGIQKVYKPFYHHIIFDDGSEIKCSDNHSFGKDKIKASTIKVGDYLQGKKVLYNEIVEEGIYLYDLLNVGEDNLYYTNGIVSHACESRGK
notes: also called 15N,13C FLAG-Cat^C
B2: Cat^N (EFE-Cat^N, cleaved from SUMO-Cat^N) (peptide)
peptide: EFEALSGDTMIEILDDDGIIQKISMEDLYQRLA
modifications: also: 15N,13C isotope-labelled form used in NMR
notes: the range 120-152 (EFEALSG...QRLA) is counted by me from that statement; Isotope-labelled (15N, 13C) in NMR; also called 15N,13C Cat^N
B3: SUMO-Flag-Cat^C (other)
chain: MGSSHHHHHHGSGLVPRGSASMSDSEVNQEAKPEVKPEVKPETHINLKVSDGSSEIFFKIKKTTPLRRLMEAFAKRQGKEMDSLRFLYDGIRIQADQTPEDLDMEDNDIIEAHREQIGGDYKDDDDKMFKLNTKNIKVLTPSGFKSFSGIQKVYKPFYHHIIFDDGSEIKCSDNHSFGKDKIKASTIKVGDYLQGKKVLYNEIVEEGIYLYDLLNVGEDNLYYTNGIVSHACESRGK
notes: also called SUMO-Flag-Cats

Legend:
[1] = target: B2; test: circular dichroism and analytical size exclusion chromatography of Cat^N, Cat^C and the complex
[2] = target: B1; test: NMR: 1H-15N HSQC, heteronuclear NOE, spin-spin relaxation, Cα-Cβ chemical shift perturbation
[3] = target: T1, Fl-Cat^N (fluorescein labeled Cat^N …); test: kon1: slope of kobs1 against Cat^C concentration, stopped-flow fluorescence anisotropy, 100 mM NaCl
[4] = target: T1, Fl-Cat^N (fluorescein labeled Cat^N …); test: kon1: slope of kobs1 against Cat^C concentration, stopped-flow fluorescence anisotropy, 500 mM NaCl
[5] = target: T1, Fl-Cat^N (fluorescein labeled Cat^N …); test: kon2: slope of kobs2 against Cat^C concentration, stopped-flow fluorescence anisotropy, 100 mM NaCl
[6] = target: T1, Fl-Cat^N (fluorescein labeled Cat^N …); test: kon2: slope of kobs2 against Cat^C concentration, stopped-flow fluorescence anisotropy, 500 mM NaCl
[7] = target: T1, Fl-Cat^N (fluorescein labeled Cat^N …); test: steady-state fluorescence anisotropy, 500 pM Fl-Cat^N, both low (100 mM NaCl) and high (500 mM NaCl) salt
[8] = target: T1, Fl-Cat^N (fluorescein labeled Cat^N …); test: one site binding fit of steady-state fluorescence anisotropy, 500 pM Fl-Cat^N, 100 mM NaCl (fit value below the probe concentration)
[9] = target: T1, Fl-Cat^N (fluorescein labeled Cat^N …); test: one site binding fit of steady-state fluorescence anisotropy, 500 pM Fl-Cat^N, 500 mM NaCl (fit value below the probe concentration)

B1
binding result [1]: binds

B2
binding result [2]: binds

B3
kon [3]: 2.8e+06 M⁻¹ s⁻¹ | kon [4]: 2.34e+06 M⁻¹ s⁻¹ | kon [5]: 160000 M⁻¹ s⁻¹ | kon [6]: 180000 M⁻¹ s⁻¹ | Kd [7]: < 0.5 nM | Kd [8]: 0.0339 nM | Kd [9]: 0.0804 nM
